These results are taken from patent US20240173425A1 (Eli Lilly, published 2024).

By Kd is commonly meant the equilibrium constant for the complex coming apart. Usually koff stands for the rate constant with which the complex falls apart. In general, kon refers to the second-order rate constant of association. A word on the EC50 (read off the curve): it is the midpoint of the concentration-response curve.

Assay [1] deals with T1, human CD33 ECD 18-232-His (human, UniProt P20138 18-232).
T1 construct: Printed as 'CD33 ECD 18-232-His'; also called human CD33 extra-cellular domain; not shown: His tag
In words: SPR, Biacore 8K, antibody captured on Protein A chip, CD33 ECD-His as analyte, 37 C, 1:1 model. The method, then: (§1) The affinity and binding kinetics of the exemplified anti-human CD33 antibodies to human and cynomolgus monkey CD33 ECD 18-232-His proteins was determined by surface plasmon resonance using Biacore 8K (GE Healthcare). Briefly, per the Instrument Handbook the antibody was captured on a Biacore Protein A chip followed by flowing CD33 ECD from 200 nM down to 0.782 nM in 2-fold serial dilution in PBS-P20-BSA (0.005% surfactant P20, 0.1 mg/mL BSA). All measurements were carried out at 37° C. Multi-cycle kinetics setting that ran each analyte concentration in a separate cycle regenerating the surface after each sample injection was used. The regeneration was optimized to maintain consistent surface properties from cycle to cycle. Each cycle started with a 3 minute injection of 0.1 μg/mL of the antibody at 10 μl/min flow rate, followed by 3 min injection of antigen at 50 μl/min flow rate and a 15 min dissociation phase in PBS-P20-BSA. The chip surface was then regenerated with 30 seconds injection of pH 1.5, 10 mM glycine buffer at 50 μl/min flow rate three times. The data was fit to a 1:1 binding model to derive kₐ and kd, and to calculate KD.
In general terms: SPR reads the build-up and loss of mass on a sensor chip optically.

Assay [2] deals with T2, cynomolgus monkey CD33 ECD 18-232-His (cynomolgus monkey).
T2 construct: also called cynomolgus monkey CD33 extra-cellular domain; not shown: His tag
The description is as above. The method, then: as §1

Assay [3] concerns the target T1, human CD33 ECD 18-232-His. Kind of assay: SPR, Biacore 8K, conjugate captured on Protein A chip, CD33 ECD-His as analyte, 37 C, 1:1 model. As to the method: as §1
For assay [4], the target named is T2, cynomolgus monkey CD33 ECD 18-232-His. The description is as above. As to the method:
as §1

In assay [5] the target is T3, human CD33 on the cell surface of human monocytes / myeloid cells (human, UniProt P20138 18-364).
T3 construct: Native CD33 on primary human monocytes from PBMC; also called cell surface CD33; SIGLEC-3
In words: FACS on human monocytes (gated from human PBMC), Alexa Fluor 647-labelled antibody, 4-fold dilutions, 30 min at 4 C, mean fluorescence intensity. The method, then: Freshly isolated cells PBMCs were resuspended at 2×10⁶ cells/mL and allowed to rest for 15 minutes at room temperature, then plated at 100 μL/well into a round bottom 96-well plate (COSTAR®) and washed with FACS buffer (PBS containing 2% fetal bovine serum from Corning®). […] Data analysis was performed using FlowJo software and statistical analysis was performed using GraphPad Prism 9.

Residue numbers refer to the chain shown, from its start. In names and notes the source's numbering stands.

T1 sequence (P20138 18-232): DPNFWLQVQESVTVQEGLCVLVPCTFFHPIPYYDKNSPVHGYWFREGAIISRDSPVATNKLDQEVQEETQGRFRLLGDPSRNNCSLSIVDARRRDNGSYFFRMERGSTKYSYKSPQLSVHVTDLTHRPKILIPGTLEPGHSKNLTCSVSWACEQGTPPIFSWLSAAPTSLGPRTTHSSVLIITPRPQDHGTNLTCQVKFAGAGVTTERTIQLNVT
T2 sequence (chain, as listed by the source): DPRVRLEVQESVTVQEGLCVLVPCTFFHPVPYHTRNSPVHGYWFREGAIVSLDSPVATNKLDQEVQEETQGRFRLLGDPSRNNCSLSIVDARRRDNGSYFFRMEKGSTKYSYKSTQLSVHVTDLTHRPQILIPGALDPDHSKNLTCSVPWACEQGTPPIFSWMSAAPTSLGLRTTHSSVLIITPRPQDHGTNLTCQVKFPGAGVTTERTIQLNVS
T3 sequence (P20138 18-364 limits assumed): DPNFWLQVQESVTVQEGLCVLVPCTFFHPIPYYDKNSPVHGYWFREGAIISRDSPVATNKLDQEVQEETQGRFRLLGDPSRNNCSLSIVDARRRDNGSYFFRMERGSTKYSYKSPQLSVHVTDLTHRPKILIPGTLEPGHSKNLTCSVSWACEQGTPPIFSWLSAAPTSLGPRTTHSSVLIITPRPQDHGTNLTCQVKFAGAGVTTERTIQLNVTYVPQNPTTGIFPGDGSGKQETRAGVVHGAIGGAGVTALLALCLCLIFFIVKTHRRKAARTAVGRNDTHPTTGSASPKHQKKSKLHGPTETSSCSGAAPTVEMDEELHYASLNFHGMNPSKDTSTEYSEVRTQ

B1: anti-human CD33 antibody Ab2 (antibody, human IgG1, kappa, L234A L235A, V domains shown)
VH: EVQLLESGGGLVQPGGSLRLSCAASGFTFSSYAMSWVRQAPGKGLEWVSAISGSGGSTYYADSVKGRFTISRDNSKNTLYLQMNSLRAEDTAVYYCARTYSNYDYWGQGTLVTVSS
VL: DIQMTQSPSSLSASVGDRVTITCQASQPTFNYLNWYQQKPGKAPKLLIYDASNLQTGVPSRFSGSGSGTDFTFTISSLQPEDIATYYCQQYEDLPTFGPGTKVDIKR
notes: Fully human IgG1AAA with S124C and A378C (EU numbering); also called anti-human CD33 Ab2
In assay [1], B1 returned a dissociation constant Kd of 1.14 nM, a koff of 0.000516 s⁻¹ and a kon of 454000 M⁻¹ s⁻¹. Further, in assay [2], binding was characterised by a dissociation constant (Kd) of 4.28 nM, the koff came to 0.00279 s⁻¹ and the kon came to 653000 M⁻¹ s⁻¹.

B2: anti-human CD33 Ab2 GC conjugate of Example 1b (antibody, human IgG1, kappa, L234A L235A, V domains shown)
VH: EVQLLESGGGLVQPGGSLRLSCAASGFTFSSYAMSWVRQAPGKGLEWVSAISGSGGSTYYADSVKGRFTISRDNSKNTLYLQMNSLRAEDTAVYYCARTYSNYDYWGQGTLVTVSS
VL: B1 VL
modifications: glucocorticoid receptor agonist payload-linker GC-L (Preparation 8, maleimide) conjugated to the engineered cysteines at positions 124 and 378 (EU numbering) of the heavy chain; n is 4 (average DAR 3.92 to 3.97)
As for B2, in assay [3], the Kd was determined as 1.47 nM, the off-rate (koff) is 0.000645 s⁻¹ and the kon is 439000 M⁻¹ s⁻¹. In assay [4], this molecule gave a Kd of 4.65 nM, a koff of 0.00478 s⁻¹ and a kon of 1.03e+06 M⁻¹ s⁻¹.

B3: anti-human CD33 antibody Ab3 (antibody, human IgG1, kappa, L234A L235A, V domains shown)
VH: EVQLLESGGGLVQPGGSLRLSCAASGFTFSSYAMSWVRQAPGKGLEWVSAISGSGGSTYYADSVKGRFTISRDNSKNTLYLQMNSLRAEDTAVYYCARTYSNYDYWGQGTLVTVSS
VL: B1 VL with F30Y, N31I
notes: Fully human IgG1AAA with S124C and A378C (EU numbering)
As for B3, in assay [1], binding was characterised by a dissociation constant (Kd) of 0.854 nM, the koff was 0.000486 s⁻¹ and the association rate constant (kon) was determined as 570000 M⁻¹ s⁻¹. Further, in assay [2], binding was characterised by a dissociation constant (Kd) of 0.812 nM, the koff is 0.00108 s⁻¹ and the kon is 1.34e+06 M⁻¹ s⁻¹. Besides, in assay [5], the half-maximal effective concentration (EC50 (read off the curve)) was around 5 ng/mL.

B4: anti-human CD33 antibody Ab1 (antibody, human IgG1, kappa, L234A L235A, V domains shown)
VH: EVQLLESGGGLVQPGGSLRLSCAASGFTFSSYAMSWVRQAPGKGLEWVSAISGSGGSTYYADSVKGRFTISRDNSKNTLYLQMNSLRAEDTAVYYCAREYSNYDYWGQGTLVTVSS
VL: B1 VL with P28D, T29V, N31R
notes: Fully human IgG1 with L234A, L235A, P329A (IgG1AAA, effector null) and engineered cysteines S124C and A378C (EU numbering), all already in the HC entry
For the molecule B4, in assay [1], the Kd was 3.4 nM, the off-rate (koff) was determined as 0.00118 s⁻¹ and the kon was found to be 346000 M⁻¹ s⁻¹.
